# Measured values: patent US20170081398A1
# Values joined by “and” are separate entries in the source; they are usually repeats but may differ in a detail not shown here. Equal entries are not always repeated.
# Tests used:
# [1] = target: human angiopoietin-1 (human) (UniProt Q15389); test: HTRF; competition with huTie-2-Fc-APC for biotinylated hAng1
# [2] = target: human angiopoietin-2 (human) (UniProt O15123); test: HTRF; competition with huTie-2-Fc-APC for biotinylated hAng2
# [3] = target: mouse Tie2 (mouse) (UniProt Q02858); test: cell-based or functional assay
# Chain of mouse Tie2 (mouse) (Q02858 23-1122): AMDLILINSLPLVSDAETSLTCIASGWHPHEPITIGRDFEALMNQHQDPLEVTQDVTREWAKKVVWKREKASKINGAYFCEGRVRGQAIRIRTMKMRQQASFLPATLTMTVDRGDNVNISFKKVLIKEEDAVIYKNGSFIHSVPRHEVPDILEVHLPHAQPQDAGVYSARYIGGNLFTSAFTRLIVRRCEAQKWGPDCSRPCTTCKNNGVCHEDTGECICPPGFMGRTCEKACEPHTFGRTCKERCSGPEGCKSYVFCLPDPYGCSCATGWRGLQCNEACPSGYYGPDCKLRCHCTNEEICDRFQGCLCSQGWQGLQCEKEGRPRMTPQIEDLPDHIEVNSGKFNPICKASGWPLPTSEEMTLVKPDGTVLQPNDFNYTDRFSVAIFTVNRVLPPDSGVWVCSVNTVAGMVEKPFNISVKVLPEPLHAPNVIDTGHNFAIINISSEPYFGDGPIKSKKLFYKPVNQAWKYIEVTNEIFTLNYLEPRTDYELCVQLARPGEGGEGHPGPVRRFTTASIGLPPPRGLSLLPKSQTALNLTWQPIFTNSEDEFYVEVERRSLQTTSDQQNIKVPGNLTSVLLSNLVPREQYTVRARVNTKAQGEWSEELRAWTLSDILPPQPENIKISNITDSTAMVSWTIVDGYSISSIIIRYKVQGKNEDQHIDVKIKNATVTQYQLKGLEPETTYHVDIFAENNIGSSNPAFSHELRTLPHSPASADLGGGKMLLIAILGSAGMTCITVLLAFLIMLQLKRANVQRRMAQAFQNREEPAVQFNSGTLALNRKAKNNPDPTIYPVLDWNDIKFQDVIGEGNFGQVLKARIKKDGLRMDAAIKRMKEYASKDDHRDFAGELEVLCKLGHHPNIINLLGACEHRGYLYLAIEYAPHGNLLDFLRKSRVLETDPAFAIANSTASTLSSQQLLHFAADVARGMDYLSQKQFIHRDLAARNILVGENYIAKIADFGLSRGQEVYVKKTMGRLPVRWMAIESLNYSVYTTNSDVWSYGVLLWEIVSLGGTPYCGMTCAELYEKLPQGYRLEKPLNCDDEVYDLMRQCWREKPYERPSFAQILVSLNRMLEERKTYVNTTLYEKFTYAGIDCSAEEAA
# Chain of human angiopoietin-2 (human) (O15123 19-496 limits assumed): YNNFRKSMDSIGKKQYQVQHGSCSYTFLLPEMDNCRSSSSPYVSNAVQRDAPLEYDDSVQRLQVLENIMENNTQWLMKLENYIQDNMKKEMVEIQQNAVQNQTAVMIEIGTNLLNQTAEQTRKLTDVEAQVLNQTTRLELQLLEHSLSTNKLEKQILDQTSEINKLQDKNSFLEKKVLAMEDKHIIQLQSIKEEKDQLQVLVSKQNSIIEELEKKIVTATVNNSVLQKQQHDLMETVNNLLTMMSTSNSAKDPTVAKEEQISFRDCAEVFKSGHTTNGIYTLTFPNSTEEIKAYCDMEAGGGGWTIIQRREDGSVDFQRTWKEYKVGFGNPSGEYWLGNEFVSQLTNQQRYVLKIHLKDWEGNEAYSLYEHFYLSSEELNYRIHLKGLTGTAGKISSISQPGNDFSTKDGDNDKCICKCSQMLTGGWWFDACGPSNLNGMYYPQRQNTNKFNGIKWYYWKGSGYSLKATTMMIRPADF
# Chain of human angiopoietin-1 (human) (Q15389 20-498 limits assumed): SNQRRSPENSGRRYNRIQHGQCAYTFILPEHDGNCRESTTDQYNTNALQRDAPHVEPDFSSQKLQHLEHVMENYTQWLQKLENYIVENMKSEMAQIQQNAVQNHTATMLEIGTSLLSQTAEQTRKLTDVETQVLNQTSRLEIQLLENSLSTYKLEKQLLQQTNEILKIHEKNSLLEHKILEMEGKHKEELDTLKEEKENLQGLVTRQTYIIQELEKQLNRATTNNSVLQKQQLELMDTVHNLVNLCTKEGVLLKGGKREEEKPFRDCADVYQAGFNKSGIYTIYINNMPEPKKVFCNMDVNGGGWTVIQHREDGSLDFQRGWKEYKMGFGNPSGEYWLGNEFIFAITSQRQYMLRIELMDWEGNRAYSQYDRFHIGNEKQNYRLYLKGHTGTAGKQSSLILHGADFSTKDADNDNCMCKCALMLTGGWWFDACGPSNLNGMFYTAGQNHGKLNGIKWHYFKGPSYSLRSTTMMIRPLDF
Substance,IC90/IC50 [1],IC90/IC50 [2],Tie2 phosphorylation in mouse lung endothelium (immunoprecipitation-Western blot) [3]
AMG 386 (Fc fusion),41 and 71,4.1 and 4.4,
recombinant Ang1 (R&D Systems Inc.) (ligand),,,5 fold
